From patent US20200031919A1 (SUZHOU KANOVA BIOPHARMACEUTICAL, published 2020)
Read-outs that look alike come from different tables or passages of the source.

How the values were obtained:
[1] = target: T1, human IL-17F (human, UniProt Q96PD4 31-163); assay: blocking ELISA: 0.5 ug/ml hIL-17F coated, antibody titrated, then 10 ug/ml hIL17RA-mIgG2aFc (blocked ligand partner); OD450 falls from about 1.35 to a lower plateau of about 0.87
T1 construct: Commercial recombinant protein; also called hIL-17F
T1 sequence (looked up): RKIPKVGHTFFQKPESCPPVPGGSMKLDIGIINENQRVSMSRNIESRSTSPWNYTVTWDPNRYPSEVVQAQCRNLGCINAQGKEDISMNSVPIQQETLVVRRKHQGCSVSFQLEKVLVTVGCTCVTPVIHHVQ
Protocol: (§1) The effect of the anti-IL17A/F antibody (produced in Example 2) on the binding of IL-17A, IL-17F or IL17A/F to the IL-17 receptor was tested by ELISA. IL-17A, IL-17F or IL-17A/F was coated in 96 well plate with 50 μl/well protein solution (protein concentration was […]) at 4° C. overnight. The wells were blocked with 1% BSA in PBST (tween 0.05%) by 200 μl/well at room temperature for 1 hour. The wells were washed 3 times with PBST. The anti-IL17A/F antibody and isotype control antibody human IgG1 (Biolegend cat# 403102) were diluted by PBS from 30 μg/ml down to 0.0005 μg/ml ([…]). The antibodies were added into the corresponding wells (50 μl/well) and incubated at room temperature for 4 hours. The wells were washed 3 times with PBST. hIL17RA-mIgG2aFc (10 μg/ml, in-house production according to standard molecular biology technology, Carson S, Molecular Biology Techniques, 2012) were added into each well (50 μl/well) and incubated at room temperature for 1 hour. The wells were washed 3 times with PBST. Goat anti-human IgG-HRP (1:5000 in PBS, EASYBIO Cat# BE0102) were added into each well (50 μl/well) and incubated at room temperature for 30 min. The wells were washed 6 times with PBST. […] The plate was read at 450 nm and 570 nm.

[2] = target: T2, cynomolgus IL-17F (cynomolgus, UniProt G7P4V0 31-163); assay: ELISA, cynomolgus IL-17F coated at 2 µg/ml
T2 construct: also called cynomolgus 17F
T2 sequence: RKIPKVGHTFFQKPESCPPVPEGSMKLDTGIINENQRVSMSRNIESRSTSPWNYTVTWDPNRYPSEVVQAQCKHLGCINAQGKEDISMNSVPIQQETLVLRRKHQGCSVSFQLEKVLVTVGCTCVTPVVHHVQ
Protocol: (§2) Human IgG1 (hIgG1) was used as a control antibody. EC50 values were calculated by GraphPad Prism.
(§3) The binding of anti-IL-17A/F antibody to cynomolgus IL-17A and IL-17F was determined by ELISA. Assay was performed in the same method of Example 7, except that cynomolgus IL-17A (Gene ID: XM 005552759.2, in-house production according to standard molecular biology method, Carson S, Molecular Biology Techniques, 2012) and IL-17F (Gene ID: XM_005552757.2, in-house production according to standard molecular biology method, Carson S, Molecular Biology Techniques, 2012) were used to replace human IL-17A and F, respectively.

[3] = target: T3, human IL-17A (human, UniProt Q16552 24-155); assay: SPR (Biacore T200), antibody captured by anti-human Fc, IL-17 as analyte
T3 construct: Commercial recombinant protein; also called hIL-17A; CTLA-8
T3 sequence (looked up): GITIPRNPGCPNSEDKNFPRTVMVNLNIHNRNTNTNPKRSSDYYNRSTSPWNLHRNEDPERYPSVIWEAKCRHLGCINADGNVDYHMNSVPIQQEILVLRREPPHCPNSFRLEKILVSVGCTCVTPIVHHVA
Protocol: Anti-human Fc gamma specific antibody (Jackson Immuno Research, Lot no. 124448, Code. 109-008-098) was immobilized onto the sensor chip using amine coupling method. Four antibodies secreted to the culture medium plus the parental antibody were injected and captured by anti-human Fc antibody via Fc (capture phase) individually. After equilibration, IL-17 was injected for 300 seconds (association phase) followed by the injection of running buffer for 1200s (dissociation phase). Responses of reference flow cell (flow cell 1) were subtracted from those of humanized antibodies flow cells during each cycle. The surface was regenerated before the injection of another humanized antibody. The process was repeated until all antibodies are analyzed. The off-rates of humanized antibodies were obtained from fitting the experimental data locally to 1:1 interaction model using the Biacore T200 evaluation software. The antibodies were ranked by their dissociation rate constants (off-rates, Kd). The binders that interact with IL-17 with similar affinity to parental antibody were selected.

[4] = target: T1, human IL-17F; assay: cell-based or functional assay
[5] = target: T4, IL-17A/F heterodimer (UniProt Q16552 24-155; Q96PD4 31-163, limits assumed); assay: cell-based or functional assay
T4 sequence (looked up) 1: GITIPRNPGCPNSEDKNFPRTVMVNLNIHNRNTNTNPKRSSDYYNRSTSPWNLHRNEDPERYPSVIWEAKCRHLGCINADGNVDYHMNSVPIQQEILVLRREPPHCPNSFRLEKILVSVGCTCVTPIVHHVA
T4 sequence (looked up) 2: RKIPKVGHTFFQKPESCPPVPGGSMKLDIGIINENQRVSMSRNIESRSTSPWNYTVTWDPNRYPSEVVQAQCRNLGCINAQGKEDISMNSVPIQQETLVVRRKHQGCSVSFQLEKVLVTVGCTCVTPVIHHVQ

[6] = target: T3, human IL-17A; assay: cell-based or functional assay
[7] = target: T4, IL-17A/F heterodimer; assay: blocking ELISA: 0.5 ug/ml hIL-17A/F heterodimer coated, antibody titrated, then 10 ug/ml hIL17RA-mIgG2aFc (blocked ligand partner); OD450 falls from about 1.9 to a lower plateau of about 0.6
Protocol: as §1

[8] = target: T3, human IL-17A; assay: blocking ELISA: 0.5 ug/ml hIL-17A coated, antibody titrated, then 10 ug/ml hIL17RA-mIgG2aFc (blocked ligand partner); OD450 falls from about 1.3 to a lower plateau of about 0.67
Protocol: as §1

[9] = target: T1, human IL-17F; assay: ELISA, human IL-17F coated at 2 µg/ml
Protocol: (§4) MaxiSorp 96-well plates (NUNC # 449824, www.thermofisher.com) were coated with 2 μg/ml human IL-17A (Cell Signaling #89285F, www.cellsignal.com), human IL-17F (Cell Signaling #8906LC, www.cellsignal.com), human IL-17B (Peprotech #200-28, www.peprotech.com), human IL-17C (R&D systems #1234-IL-025/CF, www.rndsystems.com), human IL-17D ((Peprotech #200-27, www.peprotech.com), human IL-17E (R&D systems #1258-IL-025/CF, www.rndsystems.com) in 1× PBS (50 μl/well) respectively. Plates were incubated at 4° C. overnight. Coating solution was removed and plates were washed once with 200 μl/well PBST (1× PBS with 0.05% tween-20). Then 200 μl/well blocking buffer (1× PBS with 0.05% tween-20, 3% BSA) was added and incubated at room temperature for 1 hour. Blocking buffer was removed and plates were washed three times with 200 μl/well PBST (1× PBS with 0.05% tween-20). The anti-IL17A/F antibody, hIgG VH1-1/VL5, was diluted to 10, 3.33, 1.11, 0.37, 0.123, 0.041, 0.0137, 0.0046, 0.0015, 0.00031, 0.000102, 0.000034 μg/ml by 1× PBS and added to the plates (50 μl/well). Plates were incubated at room temperature for 2 hours. Antibodies in the wells were removed and plates were washed three times with 200 μl/well PBST (1× PBS with 0.05% tween-20). […] Plates were read at 450 nm. […]

[10] = target: T5, cynomolgus IL-17A (cynomolgus, UniProt A0A2K5TTB0 24-155); assay: ELISA, cynomolgus IL-17A coated at 2 µg/ml
T5 sequence: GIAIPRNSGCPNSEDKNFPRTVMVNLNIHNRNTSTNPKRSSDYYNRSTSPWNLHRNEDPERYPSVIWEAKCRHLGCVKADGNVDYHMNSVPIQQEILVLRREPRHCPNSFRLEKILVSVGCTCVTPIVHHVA
Protocol: as §2, §3

[11] = target: T1, human IL-17F; assay: ELISA, human IL-17F coated at 2 µg/ml; remark: listed apart in the source
Protocol: as §4

[12] = target: T3, human IL-17A; assay: ELISA, human IL-17A coated at 2 µg/ml
Protocol: as §4

[13] = target: T3, human IL-17A; assay: ELISA, human IL-17A coated at 2 µg/ml; remark: listed apart in the source
Protocol: as §4

[14] = target: T6, human IL-17D (human, UniProt Q8TAD2 18-202, limits assumed); assay: ELISA, cytokine coated at 2 µg/ml
T6 construct: Commercial recombinant protein
T6 sequence (looked up): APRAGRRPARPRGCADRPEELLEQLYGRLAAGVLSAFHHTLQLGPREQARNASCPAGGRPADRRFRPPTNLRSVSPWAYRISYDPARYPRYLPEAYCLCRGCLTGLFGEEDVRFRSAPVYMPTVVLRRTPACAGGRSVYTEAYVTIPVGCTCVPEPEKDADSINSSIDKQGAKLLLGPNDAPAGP
Protocol: (§5) MaxiSorp 96-well plates (NUNC # 449824, www.thermofisher.com) were coated with 2 μg/ml human IL-17A (Cell Signaling #89285F, www.cellsignal.com), human IL-17F (Cell Signaling #8906LC, www.cellsignal.com), human IL-17B (Peprotech #200-28, www.peprotech.com), human IL-17C (R&D systems #1234-IL-025/CF, www.rndsystems.com), human IL-17D ((Peprotech #200-27, www.peprotech.com), human IL-17E (R&D systems #1258-IL-025/CF, www.rndsystems.com) in 1× PBS (50 μl/well) respectively. Plates were incubated at 4° C. overnight. Coating solution was removed and plates were washed once with 200 μl/well PBST (1× PBS with 0.05% tween-20). Then 200 μl/well blocking buffer (1× PBS with 0.05% tween-20, 3% BSA) was added and incubated at room temperature for 1 hour. Blocking buffer was removed and plates were washed three times with 200 μl/well PBST (1× PBS with 0.05% tween-20). The anti-IL17A/F antibody, hIgG VH1-1/VL5, was diluted to […], 0.000102, 0.000034 μg/ml by 1× PBS and added to the plates (50 μl/well). Plates were incubated at room temperature for 2 hours. Antibodies in the wells were removed and plates were washed three times with 200 μl/well PBST (1× PBS with 0.05% tween-20). Goat anti-human IgG(H&L)—HRP secondary antibody (Jackson Immuno Research #109-035-088, www.jacksonimmuno.com) was diluted 1:5000 in 1× PBS and added to each well (50 μl/well). Plates were incubated at room temperature for 1 hour. Secondary antibody was removed and plates were washed seven times with 200 μl/well PBST (1× PBS with 0.05% tween-20). 50 μl/well TMB (eBioscience # 85-00-4201-56, www.ebioscience.com) was added and plates were incubated at room temperature for several minutes. Then 50 μl/well 2N H₂SO₄ was added to stop the reaction. Plates were read at 450 nm. […] So, the hIgG VH1-1/VL5 antibody has binding specificity to human IL-17A and 17F and has no cross-reactivity to other IL-17 family members.

[15] = target: T7, human IL-17B (human, UniProt Q9UHF5 21-180); assay: ELISA, cytokine coated at 2 µg/ml
T7 construct: Commercial recombinant protein
T7 sequence (looked up): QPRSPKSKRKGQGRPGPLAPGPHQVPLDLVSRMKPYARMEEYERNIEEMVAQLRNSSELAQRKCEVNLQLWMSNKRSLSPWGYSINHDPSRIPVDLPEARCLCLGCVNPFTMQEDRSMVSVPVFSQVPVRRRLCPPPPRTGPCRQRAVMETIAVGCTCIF
Protocol: as §5

[16] = target: T8, human IL-17C (human, UniProt Q9P0M4 19-197); assay: ELISA, cytokine coated at 2 µg/ml
T8 construct: Commercial recombinant protein
T8 sequence (looked up): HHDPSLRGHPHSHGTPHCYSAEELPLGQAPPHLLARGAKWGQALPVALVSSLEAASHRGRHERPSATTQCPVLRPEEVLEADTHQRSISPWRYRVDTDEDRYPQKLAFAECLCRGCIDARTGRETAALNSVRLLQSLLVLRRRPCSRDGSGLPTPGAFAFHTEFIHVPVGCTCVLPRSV
Protocol: as §5

[17] = target: T9, human IL-17E (human, UniProt Q9H293 33-177); assay: ELISA, cytokine coated at 2 µg/ml
T9 construct: Commercial recombinant protein; also called IL-25
T9 sequence (looked up): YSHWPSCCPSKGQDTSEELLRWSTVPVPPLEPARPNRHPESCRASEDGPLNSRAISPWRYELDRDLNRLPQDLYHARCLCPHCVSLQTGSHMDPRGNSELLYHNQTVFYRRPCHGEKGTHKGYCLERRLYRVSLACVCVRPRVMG
Protocol: as §5

B1: anti-IL17A/F antibody hIgG VH1-1/VL5 (antibody, V domains shown)
VH: QFQLVQSGAEVKKPGASVKVSCKASGYTFTDYNLNWVRQAPGKGLEWMGVIHPDYGTTSYNQKFKDRVTMTVDTSTSTVYMELSSLRSEDTAVYYCVRYDYGDAMDYWGQGTLVTVSS
VL: DIVMTQSPLSLSVTPGQPASISCRSSQSLVHSNGNTYLHWYLQKPGQPPQLLIYKVSNRFSGVPDRFSGSGSGTDFTLKISRVEAEDVGVYYCSQSTHVPLTFGQGTKLEIKR
notes: also called VH1-1/VL5 mAb; hIgGc VH1-1/VL5
IC50 [1]: 670 pM
EC50 [2]: 180 pM
Kd [3]: 290 pM
koff [3]: 0.00059 s⁻¹
kon [3]: 2e+06 M⁻¹ s⁻¹
IC50 of inhibition of IL-17F-induced IL-6 production in HFF-1 cells [4]: 1770 pM
IC50 of inhibition of IL-17A/F heterodimer-induced IL-6 production in HFF-1 cells [5]: 990 pM
IC50 of inhibition of IL-17A-induced IL-6 production in HFF-1 cells [6]: 1730 pM
IC50 [7]: 450 pM
IC50 [8]: 720 pM
EC50 [9]: 47 pM
EC50 [10]: 60 pM
EC50 [11]: 42 pM
EC50 [12]: 46 pM
EC50 [13]: 39 pM
binding result [14]: no binding
binding result [15]: no binding
binding result [16]: no binding
binding result [17]: no binding
